Reference: patent US7662583B2, “Bioreactor containing cells expressing glycosyltransferase nucleic acids isolatable from Arabidopsis” (The University of York, priority 2003, dated 2010)

B1: UGT78D2: Arabidopsis recombinant glycosyltransferase, FIG. 5 (protein, listed as Arabidopsis thaliana)
chain: MTKPSDPTRDSHVAVLAFPFGTHAAPLLTVTRRLASASPSTVFSFFNTAQSNSSLFSSGDEADRPANIRVYDIADGVPEGYVFSGRPQEAIELFLQAAPENFRREIAKAETEVGTEVKCLMTDAFFWFAADMATEINASWIAFWTAGANSLSAHLYTDLIRETIGVKEVGERMEETIGVISGMEKIRVKDTPEGVVFGNLDSVFSKMLHQMGLALPRATAVFINSFEDLDPTLTNNLRSRFKRYLNIGPLGLLSSTLQQLVQDPHGCLAWMEKRSSGSVAYISFGTVMTPPPGELAAIAEGLESSKVPFVWSLKEKSLVQLPKGFLDRTREQGIVVPWAPQVELLKHEATGVFVTHCGWNSVLESVSGGVPMICRPFFGDQRLNGRAVEVVWEIGMTIINGVFTKDGFEKCLDKVLVQDDGKKMKCNAKKLKELAYEAVSSKGRSSENFRGLLDAVVNII
B2: UGT84B1: Arabidopsis recombinant glycosyltransferase (protein, UniProt O22182 1-456, looked up)
UDP-glycosyltransferase 84B1: MGSSEGQETHVLMVTLPFQGHINPMLKLAKHLSLSSKNLHINLATIESARDLLSTVEKPRYPVDLVFFSDGLPKEDPKAPETLLKSLNKVGAMNLSKIIEEKRYSCIISSPFTPWVPAVAASHNISCAILWIQACGAYSVYYRYYMKTNSFPDLEDLNQTVELPALPLLEVRDLPSFMLPSGGAHFYNLMAEFADCLRYVKWVLVNSFYELESEIIESMADLKPVIPIGPLVSPFLLGDGEEETLDGKNLDFCKSDDCCMEWLDKQARSSVVYISFGSMLETLENQVETIAKALKNRGLPFLWVIRPKEKAQNVAVLQEMVKEGQGVVLEWSPQEKILSHEAISCFVTHCGWNSTMETVVAGVPVVAYPSWTDQPIDARLLVDVFGIGVRMRNDSVDGELKVEEVERCIEAVTEGPAAVDIRRRAAELKRVARLALAPGGSSTRNLDLFISDITIA
B3: UGT76C1: glycosyltransferase, FIG. 9, glucosylates cytokinins (protein, listed as Arabidopsis thaliana)
chain: MEKRNERQVILFPLPLQGCINPMLQLAKILYSRGFSITIIHTRFNAPKSSDHPLFTFLQIRDGLSESQTQSRDLLLQLTLLNNNCQIPFRECLAKLIKPSSDSGTEDRKISCVIDDSGWVFTQSVAESFNLPRFVLCAYKFSFFLGHFLVPQIRREGFLPVPDSEADDLVPEFPPLRKKDLSRIMGTSAQSKPLDAYLLKILDATKPASGIIVMSCKELDHDSLAESNKVFSIPIFPIGPFHIHDVPASSSSLLEPDQSCIPWLDMRETRSVVYVSLGSIASLNESDFLEIACGLRNTNQSFLWVVRPGSVHGRDWIESLPSGFMESLDGKGKIVRWAPQLDVLAHRATGGFLTHNGWNSTLESICEGVPMICLPCKWDQFVNARFISEVWRVGIHLEGRIERREIERAVIRLMVESKGEEIRGRIKVLRDEVRRSVKQGGSSYRSLDELVDRISIIIEPLVPT
B4: UGT76C2: glycosyltransferase, FIG. 10, glucosylates cytokinins (protein, listed as Arabidopsis thaliana)
chain: MEEKRNGLRVILFPLPLQGCINPMLQLANILHVRGFSITVIHTRFNAPKASSHPLFTFLQIPDGLSETEIQDGVMSLLAQINLNAESPFRDCLRKVLLESKESERVTCLIDDCGWLFTQSVSESLKLPRLVLCTFKATFFNAYPSLPLIRTKGYLPVSESEAEDSVPEFPPLQKRDLSKVFGEFGEKLDPFLHAVVETTIRSSGLIYMSCEELEKDSLTLSNEIFKVPVFAIGPFHSYFSASSSSLFTQDETCILWLDDQEDKSVIYVSLGSVVNITETEFLEIACGLSNSKQPFLWVVRPGSVLGAKWIEPLSEGLVSSLEEKGKIVKWAPQQEVLAHRATGGFLTHNGWNSTLESICEGVPMICLPGGWDQMLNSRFVSDIWKIGIHLEGRIEKKEIEKAVRVLMEESEGNKIRERMKVLKDEVEKSVKQGGSSFQSIETLANHILLL
B5: UGT89B1: Arabidopsis recombinant glycosyltransferase (protein, UniProt Q9C9B0 1-473, looked up)
Flavonol …: MKVNEENNKPTKTHVLIFPFPAQGHMIPLLDFTHRLALRGGAALKITVLVTPKNLPFLSPLLSAVVNIEPLILPFPSHPSIPSGVENVQDLPPSGFPLMIHALGNLHAPLISWITSHPSPPVAIVSDFFLGWTKNLGIPRFDFSPSAAITCCILNTLWIEMPTKINEDDDNEILHFPKIPNCPKYRFDQISSLYRSYVHGDPAWEFIRDSFRDNVASWGLVVNSFTAMEGVYLEHLKREMGHDRVWAVGPIIPLSGDNRGGPTSVSVDHVMSWLDAREDNHVVYVCFGSQVVLTKEQTLALASGLEKSGVHFIWAVKEPVEKDSTRGNILDGFDDRVAGRGLVIRGWAPQVAVLRHRAVGAFLTHCGWNSVVEAVVAGVLMLTWPMRADQYTDASLVVDELKVGVRACEGPDTVPDPDELARVFADSVTGNQTERIKAVELRKAALDAIQERGSSVNDLDGFIQHVVSLGLNK
B6: UGT76E12: Arabidopsis recombinant glycosyltransferase (protein, UniProt Q94AB5 1-458, looked up)
Flavonol …: MQVLGMEEKPARRSVVLVPFPAQGHISPMMQLAKTLHLKGFSITVVQTKFNYFSPSDDFTHDFQFVTIPESLPESDFKNLGPIQFLFKLNKECKVSFKDCLGQLVLQQSNEISCVIYDEFMYFAEAAAKECKLPNIIFSTTSATAFACRSVFDKLYANNVQAPLKETKGQQEELVPEFYPLRYKDFPVSRFASLESIMEVYRNTVDKRTASSVIINTASCLESSSLSFLQQQQLQIPVYPIGPLHMVASAPTSLLEENKSCIEWLNKQKVNSVIYISMGSIALMEINEIMEVASGLAASNQHFLWVIRPGSIPGSEWIESMPEEFSKMVLDRGYIVKWAPQKEVLSHPAVGGFWSHCGWNSTLESIGQGVPMICRPFSGDQKVNARYLECVWKIGIQVEGELDRGVVERAVKRLMVDEEGEEMRKRAFSLKEQLRASVKSGGSSHNSLEEFVHFIRTL

Key:
[1] = UGT enzyme reaction with quercetin (recombinant UGTs, HPLC); assay type: biochemical, Arabidopsis; details: for Specific activity (nkat/mg protein) 3-O-glc: quercetin glucosylated at 3-OH; for Specific activity (nkat/mg protein) 3-O-glc / Specific activity (nkat/mg protein) 3′-O-glc / Specific activity (nkat/mg protein) 4′-O-glc / Specific activity (nkat/mg protein) 7-O-glc: 0.5 mM quercetin, 5 mM UDP-glucose, 30° C.; for Specific activity (nkat/mg protein) 3′-O-glc: quercetin glucosylated at 3′-OH; for Specific activity (nkat/mg protein) 4′-O-glc: quercetin glucosylated at 4′-OH; for Specific activity (nkat/mg protein) 7-O-glc: quercetin glucosylated at 7-OH
In short: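 Recombinant Arabidopsis UGTs (2 μg) incubated with 0.5 mM quercetin and 5 mM UDP-glucose in 100 mM Tris-HCl pH 7.0 at 30 °C for 1 h. Quercetin glucosides separated from aglycone by reverse-phase C18 HPLC (acetonitrile gradient, 0.1% TFA), detected at 370 nm.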

[2] = Whole-cell biocatalyst assay, E. coli expressing UGT in culture medium; assay type: cell-based; details: E. coli, 2x YT medium, 0.1 mM IPTG, 0.1 mM quercetin, 24 h; for Culture medium (μg/ml in supernatant) 3-O-glc: no added UDP-glucose
Method: FIG. 14 Whole-cell biocatalyst assay using UGT71C1. E. coli cells expressing recombinant were used in the biocatalyst assay. After incubation with 0.1 mM quercetin and 0.1 mM IPTG, cells were collected by centrifugation, extracted with 80% methanol and both the cell extracts (pellet) and culture medium (supernatant) were analysed using HPLC. (A) Changes in the combined amounts of aglycone/glucoside over a time-course of 0-48 h. (B) Changes in the level of different glucosides and aglycone in the culture medium over the same time-course.
Using the foundation established in the preceding example, we went on to investigate the potential of E. coli expressing plant UGTs as whole-cell biocatalysts to synthesise glucosides of quercetin. In the first instance, we used E. coli grown in 75 ml of standard culture medium. […] Table 2 describes results in which 7 different UGTs are expressed in E. coli and the identity and quantity of different glucosides recovered in the medium were analysed by HPLC. […] There was considerable variation in the level of different glucosides synthesised by the cells, although even under these non-optimised conditions, each of the four monoglucosides and two di-O-glucosides could be formed.

[3] = UGT enzyme reaction with cytokinins; assay type: biochemical; details: cytokinins, 0.5 mM, 30° C., 3 h
Method: The assay mix (200 μl) contained 2 μg of recombinant protein, 100 mM Tris-HCl, pH 8.0, 5 mM UDP-glucose 0.5 mM ATP, 50 mM MgCl2, and 0.5 mM of cytokinin. The reaction was carried out at 30° C. for 3 h, and was quick-frozen and stored at −20° C. prior to the reverse-phase HPLC analysis
Reverse-phase HPLC (SpectraSYSTEM HPLC systems and UV6000LP Photodiode Array Detector, ThermoQuest) analysis was carried using a Columbus 5μ C18 column (250×4.60 mm, PHENOMENEX). Quercetin glucosides were separated from the aglycone by a linear gradient of 10-75% acetonitrile in H2O (all solution contained 0.1% trifluoroacetic acid) at 1 ml/mm over 20 mm and monitored at 370 nm. Cytokinin glucosides were separated from their aglycone by a liner gradient of 10-100% methanol in H2O (for N6-isopentenyladenine (iP), N6-benzyladenine and kinetin) or 10-60% methanol in H2O (for trans-zeatin and dihydrozeatin) at 1 ml/min over 20 mm. All solution contained 0.25% acetic acid and 0.04% triethylamine, trifluoroacetic acid. The separation was monitored at 206 nm and 252 nm. The identity of the products was confirmed by comparison with authentic gluco sides.
• 1. 7-N-glucoside (76C1, 76C2) • 2. 9-N-glucoside (76C1, 76C2) • 3. O-glucoside (only apply to trans-Zeatin and dihydrozeatin) (85A1 for trans-Zeatin; 85A1 and 73C5 for dihydrozeatin) Large Scale Fermentation

Molecule	Specific activity (nkat/mg protein) 3-O-glc [1]	Specific activity (nkat/mg protein) 3′-O-glc [1]	Specific activity (nkat/mg protein) 4′-O-glc [1]	Specific activity (nkat/mg protein) 7-O-glc [1]	Culture medium (μg/ml in supernatant) 3-O-glc [2] [µg/mL]	Culture medium (μg/ml in supernatant) 7-O-glc [2] [µg/mL]	Cytokinin products formed by the UGTs: 7-N-glucoside [3]	Cytokinin products formed by the UGTs: 9-N-glucoside [3]	Culture medium (μg/ml in supernatant) 4′-O-glc [2] [µg/mL]	di-O-glucoside formation from quercetin ([1]; low substrate concentration, time parameter varied)	Culture medium (μg/ml in supernatant) 3,7-di-O-glc [2] [µg/mL]
B1	31.60 nkat/mg protein	— (Activity lower than 0.02 nkat/mg protein has been considered as trace activity and is not shown in the Table.)	— (Activity lower than 0.02 nkat/mg protein has been considered as trace activity and is not shown in the Table.)	— (Activity lower than 0.02 nkat/mg protein has been considered as trace activity and is not shown in the Table.)	6.83	–	–	–	–	–	–
B2	— (Activity lower than 0.02 nkat/mg protein has been considered as trace activity and is not shown in the Table.)	— (Activity lower than 0.02 nkat/mg protein has been considered as trace activity and is not shown in the Table.)	— (Activity lower than 0.02 nkat/mg protein has been considered as trace activity and is not shown in the Table.)	0.14 nkat/mg protein	–	4.83	–	–	–	–	–
B3	–	–	–	–	–	–	7-N-glucoside	9-N-glucoside	–	–	–
B4	–	–	–	–	–	–	7-N-glucoside	9-N-glucoside	–	–	–
B5	2.05 nkat/mg protein	— (Activity lower than 0.02 nkat/mg protein has been considered as trace activity and is not shown in the Table.)	3.38 nkat/mg protein	3.22 nkat/mg protein	1.08	2.36	–	–	0.94	–	–
B6	1.16 nkat/mg protein	— (Activity lower than 0.02 nkat/mg protein has been considered as trace activity and is not shown in the Table.)	— (Activity lower than 0.02 nkat/mg protein has been considered as trace activity and is not shown in the Table.)	1.35 nkat/mg protein	1.41	4.74	–	–	–	significant levels of di-O-glucosides	0.71
